Like-named read-outs stand apart in the source and are kept apart here.
Assays:
[1] = molecular target: T1, VP40-WT (Δ43, HIS-tagged), purified RNA-free monomer/dimer (UniProt Q05128 44-326)
[2] = molecular target: T1, VP40-WT (Δ43, HIS-tagged), purified …; experiment: blue native gel
[3] = molecular target: T1, VP40-WT (Δ43, HIS-tagged), purified …; experiment: native MS
[4] = molecular target: T1, VP40-WT (Δ43, HIS-tagged), purified …; experiment: 30 mM NaCl

Binder: AGGGG (ssDNA) [AGGGG DNA]
- binding result [1]: binds

Binder: AAAAAAAAAAAAAAAAAAAAAAAAAAAAAAAAAAAA (ssDNA) [A36 DNA]
- binding result [2]: no binding

Binder: TAAAATAATTTTATTGAAT (ssDNA) [S2R DNA]
- binding result [3]: binds

Binder: UACAUUCCCAGCCUUUGUAGUGUUUUCGCCAAGCA (ssRNA) [HSP RNA]
- binding result [4]: binds

Binder: CAGCCTTTGTAGTGTTTT (ssDNA) [HSP18 DNA]
- binding result [1]: binds

Binder: TACATTCCCAGCCTTTGTAGTGTTTTCGCCAAGCA (ssDNA) [HSP DNA]
- binding result [1]: binds

Source: PMC8568338 (Cell reports, 2021)
